Data from publication PMC12657314, “Structural modeling and biochemical characterization of MSMEG_0748, a MoxR ATPase from Mycobacterium smegmatis” (Computational and Structural Biotechnology Journal, 2025).
Substitutions are numbered along the chain they refer to. Numbers in names are those of the source.

B1: MSMEG_0748 (Mycolicibacterium smegmatis MC2 155) (protein)
chain: MRMAAEPGAAVTGFGGVDDVVRRFDAHDYLLDEGTATAIYLAVSLGRPLLLEGEPGVGKTTAAKTLAAVLGTPLIRLQCYEGLTASEALYDWNYQRQLLSIRLAEARGGEHLDEAALYTESYLVDRPILQCVRHRGPSSPVLLVDEIDRADDEFEALLLEFLGEAAVTVPELGTFVAERPPVVVLTSNRSRDLHDALRRRCLYHWIEYPQRAQAVAIVRRTVPGATDALIDSAVQFVSAARELDLDKPPGVAETIDWVAALVALRVGDLVDPAALGTLGALAKTPDDSGLMRDALLDLTN
notes: full length, N-terminal His-tag cut off by rTEV protease, expressed in E. coli BL21(DE3)
B2: MSMEG_0748 (Mycolicibacterium smegmatis MC2 155; E146Q) (protein)
chain: B1 chain with E146Q
notes: as for B1
B3: MSMEG_0748 (MoxR-type AAA+ ATPase from Mycobacterium smegmatis mc2 155), recombinant, tag-cleaved (enzyme, UniProt A0QQG6 1-300, looked up)
chain: B1 chain
notes: MSMEG_0748, MoxR-type AAA+ ATPase, Mycobacterium smegmatis mc2 155, UniProt A0QQG6; amplified from genomic DNA into pProEX-HTa; full-length protein of about 32.7 kDa after removal of the His tag by rTEV protease; also called wild-type MSMEG_0748; MoxR ATPase; source: E. coli BL21(DE3), purified (Ni-NTA, TEV cleavage, second Ni-NTA, SEC on Superdex 200); not shown: His-tag, N-terminal, cleaved

How the values were obtained:
[1] = substrate: Nc1ncnc2c1ncn2[C@@H]1O[C@H](COP(=O)(O)OP(=O)(O)OP(=O)(O)O)[C@@H](O)[C@H]1O; assay: purified protein; assay type: biochemical, Mycolicibacterium smegmatis; settings: 50 mM Tris-HCl pH 8.0, 150 mM KCl, 2 mM MgCl2, 2 mM DTT, 30 °C, 200 nM protein
[2] = biological target: the molecule itself; assay: SEC-MALS; Superdex 200 Increase 10/300 GL, 5 mg/mL protein injected, 20 mM Tris-HCl pH 7.5, 300 mM NaCl, 0.5 mM TCEP, flow 0.5 mL/min; DAWN Heleos II detector

Row | Protein | Km [1] [µM] | kcat [1] [S^−1] | stoichiometry N [2]
1 | B1 | 0.6951 | 0.0251 | 
2 | B2 | 0.9024 | 0.0189 | 
3 | B3 |  |  | 6
